B1: HDV Ribozyme (parent)
chain: GGCCGGCAUGGUCCCAGCCUCCUCGCUGGCGCCGGCUGGGCAACAUUCCGAGGGGACCGUCCCCUCGGUAAUGGCGAAUGGGACCCA

Variants of B1 are the subject of the data set. Briefly: self-cleavage, relative activity (ratio to wild type); higher = more cleavage; co-transcriptional.
In the case of GGCCGGCAUGGUCCCAGCCUCCUCGCUGGCGCCGGCUGGGCAACAUUCCGAGGGGACCGUCCCCUCGGUAAUGGCGAAUGUGCCCCA, the self-cleavage amounted to 0.0821. Turning to GGCCGGCAUGGUCCCAGCCUCCUCGCUGGCGCCGGCUGGGCAACAUUCCGAGGGGACCGUCCCCUCGGUAAUGGCGAAUGGGCCCCG, the self-cleavage came out at 0.302.

As to GGCCGGCAUGGUCCCAGCCUCCUCGCUGGCGCCGGCUGGGCAACAUUCCGAGGGGACCGUCCCCUCGGUAAUGGCGAAUGGGGCACA, the self-cleavage was determined as 0.677.

With GGCCGGCAUGGUCCCAGCCUCCUCGCUGGCGCCGGCUGGGCAACAUUCCGAGGGGACCGUCCCCUCGGUAAUGGCGAAUGGGGCGCA, the self-cleavage was found to be 1.12. The value for GGCCGGCAUGGUCCCAGCCUCCUCGCUGGCGCCGGCUGGGCAACAUUCCGAGGGGACCGUCCCCUCGGUAAUGGCGAAUGGCACUCA was 0.18; that for GGCCGGCAUGGUCCCAGCCUCCUCGCUGGCGCCGGCUGGGCAACAUUCCGAGGGGACCGUCCCCUCGGUAAUGGCGAAUGGCACGCA was 0.119. The value for GGCCGGCAUGGUCCCAGCCUCCUCGCUGGCGCCGGCUGGGCAACAUUCCGAGGGGACCGUCCCCUCGGUAAUGGCGAAUGGCACACA was 0.147; that for GGCCGGCAUGGUCCCAGCCUCCUCGCUGGCGCCGGCUGGGCAACAUUCCGAGGGGACCGUCCCCUCGGUAAUGGCGAAUGUGACUCA was 0.31; that for GGCCGGCAUGGUCCCAGCCUCCUCGCUGGCGCCGGCUGGGCAACAUUCCGAGGGGACCGUCCCCUCGGUAAUGGCGAAUGUGACACA was 0.389. Consider GGCCGGCAUGGUCCCAGCCUCCUCGCUGGCGCCGGCUGGGCAACAUUCCGAGGGGACCGUCCCCUCGGUAAUGGCGAAUGUGACGCA, for which the self-cleavage came to 0.212. Regarding GGCCGGCAUGGUCCCAGCCUCCUCGCUGGCGCCGGCUGGGCAACAUUCCGAGGGGACCGUCCCCUCGGUAAUGGCGAAUGUGACCUA, the self-cleavage was 0.767. On to GGCCGGCAUGGUCCCAGCCUCCUCGCUGGCGCCGGCUGGGCAACAUUCCGAGGGGACCGUCCCCUCGGUAAUGGCGAAUGUGACCGA, for which the self-cleavage turned out to be 0.27. The value for GGCCGGCAUGGUCCCAGCCUCCUCGCUGGCGCCGGCUGGGCAACAUUCCGAGGGGACCGUCCCCUCGGUAAUGGCGAAUGGCCCCCA was 0.284; that for GGCCGGCAUGGUCCCAGCCUCCUCGCUGGCGCCGGCUGGGCAACAUUCCGAGGGGACCGUCCCCUCGGUAAUGGCGAAUGGCUCCCA was 0.237. On to GGCCGGCAUGGUCCCAGCCUCCUCGCUGGCGCCGGCUGGGCAACAUUCCGAGGGGACCGUCCCCUCGGUAAUGGCGAAUGUAACCCA, for which the self-cleavage worked out at 0.277. Regarding GGCCGGCAUGGUCCCAGCCUCCUCGCUGGCGCCGGCUGGGCAACAUUCCGAGGGGACCGUCCCCUCGGUAAUGGCGAAUGUUACCCA, the self-cleavage was 0.211. Regarding GGCCGGCAUGGUCCCAGCCUCCUCGCUGGCGCCGGCUGGGCAACAUUCCGAGGGGACCGUCCCCUCGGUAAUGGCGAAUGGCAACCA, the self-cleavage was 0.383. The value for GGCCGGCAUGGUCCCAGCCUCCUCGCUGGCGCCGGCUGGGCAACAUUCCGAGGGGACCGUCCCCUCGGUAAUGGCGAAUGGGUCCCA was 0.523; that for GGCCGGCAUGGUCCCAGCCUCCUCGCUGGCGCCGGCUGGGCAACAUUCCGAGGGGACCGUCCCCUCGGUAAUGGCGAAUGGGCCCCA was 0.458; that for GGCCGGCAUGGUCCCAGCCUCCUCGCUGGCGCCGGCUGGGCAACAUUCCGAGGGGACCGUCCCCUCGGUAAUGGCGAAUGGGGCCCA was 0.806. The value for GGCCGGCAUGGUCCCAGCCUCCUCGCUGGCGCCGGCUGGGCAACAUUCCGAGGGGACCGUCCCCUCGGUAAUGGCGAAUGGAAACCA was 0.399; that for GGCCGGCAUGGUCCCAGCCUCCUCGCUGGCGCCGGCUGGGCAACAUUCCGAGGGGACCGUCCCCUCGGUAAUGGCGAAUGGGGCCCC was 0.906. The value for GGCCGGCAUGGUCCCAGCCUCCUCGCUGGCGCCGGCUGGGCAACAUUCCGAGGGGACCGUCCCCUCGGUAAUGGCGAAUGGUACCCG was 0.387; that for GGCCGGCAUGGUCCCAGCCUCCUCGCUGGCGCCGGCUGGGCAACAUUCCGAGGGGACCGUCCCCUCGGUAAUGGCGAAUGGGAAGCA was 0.519. As to GGCCGGCAUGGUCCCAGCCUCCUCGCUGGCGCCGGCUGGGCAACAUUCCGAGGGGACCGUCCCCUCGGUAAUGGCGAAUGGUACGCA, the self-cleavage was found to be 0.446. For GGCCGGCAUGGUCCCAGCCUCCUCGCUGGCGCCGGCUGGGCAACAUUCCGAGGGGACCGUCCCCUCGGUAAUGGCGAAUGGUACACA, the self-cleavage worked out at 0.256. Consider GGCCGGCAUGGUCCCAGCCUCCUCGCUGGCGCCGGCUGGGCAACAUUCCGAGGGGACCGUCCCCUCGGUAAUGGCGAAUGGUACUCA, for which the self-cleavage amounted to 0.451. The value for GGCCGGCAUGGUCCCAGCCUCCUCGCUGGCGCCGGCUGGGCAACAUUCCGAGGGGACCGUCCCCUCGGUAAUGGCGAAUGGUACCAA was 0.793.

Regarding GGCCGGCAUGGUCCCAGCCUCCUCGCUGGCGCCGGCUGGGCAACAUUCCGAGGGGACCGUCCCCUCGGUAAUGGCGAAUGGGCCCUA, the self-cleavage turned out to be 0.376. As for GGCCGGCAUGGUCCCAGCCUCCUCGCUGGCGCCGGCUGGGCAACAUUCCGAGGGGACCGUCCCCUCGGUAAUGGCGAAUGGGCCCGA, the self-cleavage was determined as 0.254. Turning to GGCCGGCAUGGUCCCAGCCUCCUCGCUGGCGCCGGCUGGGCAACAUUCCGAGGGGACCGUCCCCUCGGUAAUGGCGAAUGGGGCCUA, the self-cleavage amounted to 1.08. The value for GGCCGGCAUGGUCCCAGCCUCCUCGCUGGCGCCGGCUGGGCAACAUUCCGAGGGGACCGUCCCCUCGGUAAUGGCGAAUGGGGCCGA was 0.807.

For the origin of these results see the RNAGym collection of RNA variant scans (doi:10.7554/elife.80360).
